This note sets out measurements from US20240158474A1 (SINO BIOLOGICAL, published 2024).

For assay [1], the target named is T1, HPV56 VLP protein (human papillomavirus type 56, UniProt P36743 36-507).
T1 construct: Complete VLP protein; no limits of the construct printed, whole entry named; also called HPV56L1
T1 sequence: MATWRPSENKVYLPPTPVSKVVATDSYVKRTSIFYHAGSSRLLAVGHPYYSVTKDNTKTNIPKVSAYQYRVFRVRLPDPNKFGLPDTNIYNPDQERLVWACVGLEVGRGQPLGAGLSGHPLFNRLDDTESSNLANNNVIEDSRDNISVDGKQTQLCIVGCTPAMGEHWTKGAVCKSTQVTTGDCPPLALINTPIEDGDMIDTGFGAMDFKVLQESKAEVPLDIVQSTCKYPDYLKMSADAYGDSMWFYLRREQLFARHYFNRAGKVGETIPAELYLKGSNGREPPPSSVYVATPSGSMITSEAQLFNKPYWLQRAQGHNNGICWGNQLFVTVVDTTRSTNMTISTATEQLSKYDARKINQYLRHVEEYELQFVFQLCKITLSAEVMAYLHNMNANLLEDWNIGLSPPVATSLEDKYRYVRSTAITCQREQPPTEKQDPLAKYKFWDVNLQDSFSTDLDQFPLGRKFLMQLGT
Kind of assay: indirect ELISA on coated VLP. On the technique in general: An ELISA detects its analyte on a solid surface through an enzyme-linked reagent.

For assay [2], the target named is T2, HPV58 VLP protein (human papillomavirus type 58, UniProt P26535 27-499).
T2 construct: Complete VLP protein; no limits of the construct printed, whole entry named; also called P58SHELL
T2 sequence: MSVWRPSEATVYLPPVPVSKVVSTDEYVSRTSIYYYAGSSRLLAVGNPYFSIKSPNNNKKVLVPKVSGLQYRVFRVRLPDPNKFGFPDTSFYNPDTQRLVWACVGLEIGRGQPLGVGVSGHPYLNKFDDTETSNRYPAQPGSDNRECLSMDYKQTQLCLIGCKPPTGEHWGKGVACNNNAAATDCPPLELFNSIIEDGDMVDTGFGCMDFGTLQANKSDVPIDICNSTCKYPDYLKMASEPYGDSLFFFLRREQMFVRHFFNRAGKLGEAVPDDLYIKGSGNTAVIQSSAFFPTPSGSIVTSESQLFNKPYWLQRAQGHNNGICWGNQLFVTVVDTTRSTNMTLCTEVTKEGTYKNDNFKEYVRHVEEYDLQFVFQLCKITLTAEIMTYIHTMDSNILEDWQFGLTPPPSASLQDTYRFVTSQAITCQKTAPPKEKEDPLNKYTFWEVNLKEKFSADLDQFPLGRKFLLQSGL
The assay is described as follows: indirect ELISA on coated VLP.

B1: monoclonal antibody HPV6-R003 (antibody, V domains shown)
VH: QQQLEESGGGLVKPGGTLTLTCKASGIDLSNYYMCWVRQAPGKGLEWIGCIYTGSGRTYYASWAKGRFTISKASSTTVTLQMTSLTAADTATYFCARDYLGWRASNIWGPGTLVTVSS
VL: ELVMTQTPSSVSAAVGGTVTINCQASQSVYSNNLVWYQQKPGQPPKLLIYGASTLASGVPSRFKGSGSGTQFTLTISDVVCDDAATYYCGGYVSDSTDGTAFGGGTEVVVKG
notes: here built from variable plus constant region so that the signal peptides are left out; In the sandwich ELISA the same antibody is used as coating antibody and, labelled with horseradish peroxidase, as detection antibody; also called anti-HPV6 L1 protein antibody
Consider B1, for which the binding result in assay [1] and in assay [2] was “no binding (tested: antibody 10 ng/mL; coating 2 µg/mL)” throughout.
